Measurements taken from patent US8247376B2, “NGAL for reduction and amelioration of ischemic and nephrotoxic injuries” (The Trustees of Columbia University, priority 2004, dated 2012).
“Also recorded” adds a separate entry of the source. Structures can show the parent of a compound that is named as a salt.

Key:
[1] = tested on: mouse model of ATN or ischemia/reperfusion injury; test: Mouse model of ATN (30 min clamp, contralateral nephrectomy): plasma creatinine; type: in vivo, mice; conditions: for protection against ATN (creatinine, FIG. 17A): mice, 30 minutes of ischemia, 10 μg protein or single dose, 15 min prior to ischemia
Method: Male C57BL/6 mice (20-25 gr; Charles River) were anesthetized with intraperitoneal pentobarbital (50 mg/kg) and placed on a heating pad under a warming light to maintain 37© core body temperature. Kidneys were exposed through an abdominal section and the right kidney was either removed or its vascular pedicle and ureter ligated. The vascular pedicle of the left kidney or both kidneys was clamped by a microaneurysm clip (Kent Scientific) for 30 minutes after right nephrectomy. This period of ischemia generated reproducible renal injury but minimized mortality. During the procedure, PBS (0.5 ml) was used to dampen the peritoneum. The animal was closed with 5-0 Nylon. Saline, NGAL, retinol-loaded retinol binding protein (RBP), enterochelin, or desferroxamine mesylate (DFO) were injected into the peritoneum or subcutaneously 15 min. prior to ischemia or 1-2 hr after reperfusion.
After 6 or 24 hr of reperfusion, heparinized plasma, urine and kidney samples were obtained to measure NGAL (polyclonal 1:500), Heme oxygenase-1 (Stressgen, 1:2000), E-cadherin (BD Transduction Labs, 1:2000), N-cadherin (BD Transduction Labs, 1:3000) and GAPDH (Chemicon International, 1:3000) using immunoblots. Plasma was also used for creatinine and blood urea nitrogen colorimetric assays. Sagittal sections of the kidney were fixed in 4% formalin, or were snap frozen for mRNA and protein analysis. Paraffin-embedded sections (5 μm) were stained with hematoxylin-eosin or by an in situ kit (Fluorescein-TUNEL, Roche) for apoptotic nuclei or for total nuclei (Toprol, Molecular Probes). For cell proliferation analysis, BrdU was injected into the peritoneum 1 hour before sacrifice, and cryostat sections were stained with anti-BrdU (Roche) according to the manufacturer.

[2] = Cofactor-dependent ^55Fe binding to NGAL (10 kDa filter retention); conditions: for inhibition of ^55Fe capture by apo-NGAL+urine: competitor: 1000-fold unlabeled iron citrate or 50-fold iron-saturated enterochelin; for retention of ^55Fe: washed on 10 kDa filter
Method: The urine fraction was obtained by passing fresh urine sequentially through 10 kDa and 3 kDa membranes (YM-10 and YM-3, Amicon). The mixture was then washed three times on 10 kDa membrane (YM-10, Amicon). Iron-free enterochelin-loaded NGAL (rather than NGAL without siderophore) served as a positive control for iron capture. Ferric citrate (1 mM) or iron-loaded enterochelin (Sid:Fe, 50 μM) were used as competitors of ^55Fe binding.

[3] = Distribution and radioautography of ^55Fe after ^55Fe:Sid:NGAL injection; type: in vivo, mice; conditions: for Silver Grains (% Total): kidney radioautography; for ^55Fe recovered: one hour after 10 μg intraperitoneal
Description: (§1) Recombinant human and mouse GST-NGAL were expressed in BL21 or XL1-Blue strains of E. coli (Stratagene) with additional ferric sulfate (50 Micro Molar, Sigma-Aldrich Co.). NGAL was isolated using Glutathione Sepharose 4B beads (Amersham Biosciences), eluted by thrombin cleavage (Sigma-Aldrich Co.; St. Louis, Mo.) and then further purified by gel filtration (Superdex75, SMART system, Amersham Biosciences) and examined by Coomassie gels (Biorad). BL-21 derived NGAL was loaded with iron free or iron saturated enterochelin, a siderophore (EMC Microcollections) using a 5 fold molar excess. Unbound siderophore (0.7 KD) was removed by washing (Microcon YM-10) with PBS. To produce ^55Fe or gallium (Ga) loaded NGAL we incubated the iron-free enterochelin NGAL complex with equimolar ^55Fe (18mCi) or Ga in NaCl (150 mM) Hepes (20 mM; pH 7.4) and the complex was washed 3 times (10K filter). Iodobeads (Pierce) were used to label NGAL with ^125I and unincorporated ^125I was removed by gel filtration (PD-10 column) followed by extensive dialysis (7 kDa cut off membrane, Pierce) against PBS. Alexa-568 and fluorescein isothiocyanate (Molecular Probes) was coupled to NGAL, according to the manufacturer, and then extensively dialyzed. Protein concentration was determined by Coomassie gels in comparison with bovine serum albumin standard.
(§2) To detect delivery of NGAL to the kidney rNGAL (10 or 100 μg), Alexa 568-NGAL (100 μg), ^125I-NGAL ([…], 2×10^6 cpm), or ^55Fe loaded enterochelin-NGAL (10 μg, 1×10^6 cpm) was injected into the peritoneum and blood, urine, kidney and liver samples were obtained. NGAL was detected by immunoblot. Alexa-568 NGAL was detected by confocal microscopy (LSM Meta Detector) and NGAL mediated iron trafficking was detected by scintillation counter and by light microscopic radioautography of Epon embedded kidneys. Slides were exposed to emulsion (Polyscience) for 1 week and then developed with Microdol and counterstained with Toluidine blue. To detect lysosomes in the proximal tubule, mice were injected with Fluorescein Dextran (46 kD; 0.5 mg; Sigma) 24 hours before Alexa 568 NGAL injections. LAMP1 (Santa Cruz) was detected in cryostat sections of 4% paraformaldehyde fixed kidneys.

[4] = NGAL trafficking after intraperitoneal or subcutaneous injection; type: in vivo, mice
Description: as §1, §2

Q: With `CC(=O)N(O)CCCCCNC(=O)CCC(=O)N(O)CCCCCNC(=O)CCC(=O)N(O)CCCCCN` [DFO, desferrioxamine mesylate, reference compound] as the molecule, how does the “protection against ATN (creatinine, FIG. 17A)” value (from here on “protection against ATN”) [1] read?
A: failed to protect against ATN; also recorded: ineffective

Q: Which “inhibition of ^55Fe capture by apo-NGAL+urine” value [2] does the source give for “Ferric citrate [iron citrate, reference compound]” here?
A: inhibited

Q: And the “inhibition of ^55Fe capture by apo-NGAL+urine” value ([2]; listed as iron-citrate)?
A: blocked

B1: apo-NGAL: NGAL cloned in BL-21 bacteria; does not contain enterochelin (siderophore free) (protein, UniProt P80188 21-198, looked up)
Neutrophil …: QDSTSDLIPAPPLSKVPLQQNFQDNQFQGKWYVVGLAGNAILREDKDPQKMYATIYELKEDKSYNVTSVLFRKKKCDYWIRTFVPGCQPGEFTLGNIKSYPGLTSYLVRVVSTNYNQHAMVFFKKVSQNREYFKITLYGRTKELTSELKENFIRFSKSLGLPENHIVFPVPIDQCIDG
modifications: siderophore-free
Q: With B1 as the molecule, how does the “retention of ^55Fe” value ([2]; in buffer) read?
A: failed to trap ^55Fe and not

Q: What about the “retention of ^55Fe” value ([2]; with mouse urine fraction (<3,000 Da)) of the same molecule?
A: retains ^55Fe

Q: What about the “protection against ATN” value [1] of the same molecule?
A: minimally active

Q: What about the “protection against ATN” value ([1]; listed as apo-Ngal) of the same molecule?
A: reduced level of protection

B2: apo-NGAL:Sid:Ga: gallium-loaded enterochelin-NGAL complex (protein, UniProt P80188 21-198, looked up)
Neutrophil …: B1 Neutrophil …
modifications: enterochelin loaded with gallium
notes: gallium-loaded enterochelin-NGAL complex
Q: For B2, which creatinine ([1]; gallium complex 15 minutes prior to ischemia) is on record?
A: 3.17±0.1

Q: What about the “protection against ATN” value [1] of the same molecule?
A: ineffective

Q: What about the “protection against ATN” value ([1]; listed as apo-Ngal:Sid:Ga) of the same molecule?
A: not protected

B3: ^55Fe:Sid:NGAL: iron-free enterochelin-NGAL incubated with ^55Fe at 1:1 stoichiometry (protein, UniProt P80188 21-198, looked up)
Neutrophil …: B1 Neutrophil …
modifications: enterochelin loaded with 55Fe
notes: iron-free enterochelin-NGAL incubated with ^55Fe at 1:1 stoichiometry
Q: Which “Relative SA (% grains/% point count)” value ([3]; Apical MB) does the source give for B3 here?
A: 2.21

Q: And the “Relative SA (% grains/% point count)” value ([3]; Basal MB)?
A: 0.59

Q: What about the “Relative SA (% grains/% point count)” value ([3]; Cytosol) of the same molecule?
A: 1

Q: What about the “Relative SA (% grains/% point count)” value ([3]; Glomerular Tuft) of the same molecule?
A: 0.11

Q: And the “Relative SA (% grains/% point count)” value ([3]; Interstitium)?
A: 0.3

Q: What about the “Relative SA (% grains/% point count)” value ([3]; Lumen) of the same molecule?
A: 1.43

Q: And the “Relative SA (% grains/% point count)” value ([3]; Nucleus)?
A: 0.56

Q: And the “Silver Grains (% Total)” value ([3]; Apical MB)?
A: 12.91 % Total

Q: And the “Silver Grains (% Total)” value ([3]; Basal MB)?
A: 3.81 % Total

Q: What about the “Silver Grains (% Total)” value ([3]; Cytosol) of the same molecule?
A: 48.98 % Total

Q: What about the “Silver Grains (% Total)” value ([3]; Glomerular Tuft) of the same molecule?
A: 0.13 % Total

Q: What about the “Silver Grains (% Total)” value ([3]; Interstitium) of the same molecule?
A: 3.71 % Total

Q: And the “Silver Grains (% Total)” value ([3]; Lumen)?
A: 26.46 % Total

Q: And the “Silver Grains (% Total)” value ([3]; Nucleus)?
A: 4.02 % Total

Q: What about the “^55Fe recovered” value ([3]; kidney) of the same molecule?
A: 55%

Q: What about the “^55Fe recovered” value ([3]; liver) of the same molecule?
A: 2.4%

Q: And the “^55Fe recovered” value ([3]; plasma)?
A: 4.3%

Q: And the “^55Fe recovered” value ([3]; spleen)?
A: 0.2%

Q: What about the “^55Fe recovered” value ([3]; urine) of the same molecule?
A: 0.6%

B4: apo-NGAL:Sid: BL-21-cloned NGAL reconstituted with iron-free enterochelin (protein, UniProt P80188 21-198, looked up)
Neutrophil …: B1 Neutrophil …
modifications: complexed with iron-free enterochelin
notes: BL-21-cloned NGAL reconstituted with iron-free enterochelin
Q: Which results are given for B4?
A: retention of ^55Fe ([2]; in buffer): retained; protection against ATN (creatinine, FIG. 17A) [1]: protective effect; protection against ATN (creatinine, FIG. 17A) ([1]; listed as apo-Ngal:Sid): enhanced the protection of the kidney and blunted the rise in serum creatinine

B5: Alexa-568 NGAL: NGAL coupled to Alexa-568 fluorescent dye (conjugate, UniProt P11672 21-200, looked up)
Neutrophil …: QDSTQNLIPAPSLLTVPLQPDFRSDQFRGRWYVVGLAGNAVQKKTEGSFTMYSTIYELQENNSYNVTSILVRDQDQGCRYWIRTFVPSSRAGQFTLGNMHRYPQVQSYNVQVATTDYNQFAMVFFRKTSENKQYFKITLYGRTKELSPELKERFTRFAKSLGLKDDNIIFSVPTDQCIDN
modifications: Alexa-568 dye
notes: NGAL coupled to Alexa-568 fluorescent dye
Q: For B5, which “localization of fluorescent NGAL in kidney” value ([4]; by one hour after injection) is on record?
A: localized to large vesicles in the subapical domain of the cortical proximal tubule

Q: What about the “NGAL vesicles also containing dextran (lysosomes)” value ([4]; one hour after injecting, fluorescein-dextran the day before) of the same molecule?
A: 33%

B6: holo-NGAL: NGAL cloned in XL-1Blue bacteria; contains enterochelin and is iron-loaded (protein, UniProt P11672 21-200, looked up)
Neutrophil …: B5 Neutrophil …
modifications: enterochelin, iron-loaded
notes: NGAL cloned in XL-1Blue bacteria; contains enterochelin and is iron-loaded
Q: Which “protection against ATN” value [1] does the source give for B6 here?
A: rescues renal function

Q: And the “protection against ATN” value ([1]; listed as holo-Ngal)?
A: protected the kidney

B7: apo-NGAL:Sid:Fe: BL-21-cloned NGAL reconstituted with iron-saturated enterochelin (protein, UniProt P11672 21-200, looked up)
Neutrophil …: B5 Neutrophil …
modifications: iron-saturated enterochelin
notes: BL-21-cloned NGAL reconstituted with iron-saturated enterochelin
Q: Which “retention of ^55Fe” value ([2]; in buffer) does the source give for B7 here?
A: not

Q: And the “protection against ATN” value [1]?
A: protective effect

Q: And the “protection against ATN” value ([1]; listed as apo-Ngal:Sid:Fe)?
A: enhanced the protection of the kidney and blunted the rise in serum creatinine
